{
  "source": "the supplement of paper PMC6379048",
  "key": {"[1]": {"molecular_target": "XRN1 (UniProt Q8IZH2)", "sequence (Q8IZH2 whole entry)": "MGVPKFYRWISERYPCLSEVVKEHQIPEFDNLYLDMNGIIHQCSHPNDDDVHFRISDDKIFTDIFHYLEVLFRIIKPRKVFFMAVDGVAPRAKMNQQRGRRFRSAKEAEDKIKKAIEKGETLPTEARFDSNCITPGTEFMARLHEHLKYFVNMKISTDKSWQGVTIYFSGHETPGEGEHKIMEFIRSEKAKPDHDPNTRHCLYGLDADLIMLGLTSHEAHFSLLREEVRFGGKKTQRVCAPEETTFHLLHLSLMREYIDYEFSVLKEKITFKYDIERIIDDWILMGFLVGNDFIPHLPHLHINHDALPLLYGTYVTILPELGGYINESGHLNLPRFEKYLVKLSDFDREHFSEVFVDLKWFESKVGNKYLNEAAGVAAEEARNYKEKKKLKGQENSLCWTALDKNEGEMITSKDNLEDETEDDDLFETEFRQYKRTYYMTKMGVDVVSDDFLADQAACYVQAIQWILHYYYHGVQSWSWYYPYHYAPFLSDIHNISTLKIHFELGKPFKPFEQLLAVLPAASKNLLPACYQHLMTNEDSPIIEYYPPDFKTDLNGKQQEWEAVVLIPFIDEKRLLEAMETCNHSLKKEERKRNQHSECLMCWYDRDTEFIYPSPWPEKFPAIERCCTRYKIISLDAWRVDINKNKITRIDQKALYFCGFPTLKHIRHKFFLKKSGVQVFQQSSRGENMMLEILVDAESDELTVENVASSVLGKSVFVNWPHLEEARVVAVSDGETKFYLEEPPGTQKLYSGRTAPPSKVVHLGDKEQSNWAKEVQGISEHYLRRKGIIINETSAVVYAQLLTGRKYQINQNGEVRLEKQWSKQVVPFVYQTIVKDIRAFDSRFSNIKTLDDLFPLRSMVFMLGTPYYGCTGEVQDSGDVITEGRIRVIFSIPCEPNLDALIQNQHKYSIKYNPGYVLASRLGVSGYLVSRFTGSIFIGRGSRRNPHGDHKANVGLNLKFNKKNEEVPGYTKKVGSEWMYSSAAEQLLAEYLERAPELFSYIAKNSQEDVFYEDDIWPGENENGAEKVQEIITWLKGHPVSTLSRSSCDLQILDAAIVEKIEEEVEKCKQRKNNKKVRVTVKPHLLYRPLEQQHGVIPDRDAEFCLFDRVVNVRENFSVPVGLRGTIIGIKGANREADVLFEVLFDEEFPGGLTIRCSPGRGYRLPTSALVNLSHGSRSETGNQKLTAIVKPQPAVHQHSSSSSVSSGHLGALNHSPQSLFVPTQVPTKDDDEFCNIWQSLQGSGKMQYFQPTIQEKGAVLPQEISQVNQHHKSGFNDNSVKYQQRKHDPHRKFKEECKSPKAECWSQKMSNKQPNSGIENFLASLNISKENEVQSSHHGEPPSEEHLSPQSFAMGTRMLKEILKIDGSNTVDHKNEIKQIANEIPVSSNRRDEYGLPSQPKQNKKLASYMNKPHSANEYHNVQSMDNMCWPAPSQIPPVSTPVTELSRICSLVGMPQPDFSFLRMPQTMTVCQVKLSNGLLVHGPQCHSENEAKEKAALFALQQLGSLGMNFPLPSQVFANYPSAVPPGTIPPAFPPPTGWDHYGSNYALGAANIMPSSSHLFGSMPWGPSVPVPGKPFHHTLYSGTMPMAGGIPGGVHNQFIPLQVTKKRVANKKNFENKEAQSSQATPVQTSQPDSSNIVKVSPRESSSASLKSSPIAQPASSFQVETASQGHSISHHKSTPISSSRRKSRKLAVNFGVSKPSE", "assay": "Kd (EC50 corrected by depletion factor)", "outline": "(§1)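 Free RNA oligos (0 nM to 30 μM) competed for 1 h at 4°C in HEK293-FT lysate (2.5 mg protein/well) before a 30 min, 4°C pulldown with the same oligos on NHS-Sepharose beads. Bound proteins were quantified by label-free LC-MS/MS and normalised to the control. Kd was found by multiplying EC50, from a four-parameter log-logistic fit, by a protein-dependent depletion factor.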"}, "[2]": {"molecular_target": "T1, SYMPK (UniProt Q92797)", "T1 sequence": "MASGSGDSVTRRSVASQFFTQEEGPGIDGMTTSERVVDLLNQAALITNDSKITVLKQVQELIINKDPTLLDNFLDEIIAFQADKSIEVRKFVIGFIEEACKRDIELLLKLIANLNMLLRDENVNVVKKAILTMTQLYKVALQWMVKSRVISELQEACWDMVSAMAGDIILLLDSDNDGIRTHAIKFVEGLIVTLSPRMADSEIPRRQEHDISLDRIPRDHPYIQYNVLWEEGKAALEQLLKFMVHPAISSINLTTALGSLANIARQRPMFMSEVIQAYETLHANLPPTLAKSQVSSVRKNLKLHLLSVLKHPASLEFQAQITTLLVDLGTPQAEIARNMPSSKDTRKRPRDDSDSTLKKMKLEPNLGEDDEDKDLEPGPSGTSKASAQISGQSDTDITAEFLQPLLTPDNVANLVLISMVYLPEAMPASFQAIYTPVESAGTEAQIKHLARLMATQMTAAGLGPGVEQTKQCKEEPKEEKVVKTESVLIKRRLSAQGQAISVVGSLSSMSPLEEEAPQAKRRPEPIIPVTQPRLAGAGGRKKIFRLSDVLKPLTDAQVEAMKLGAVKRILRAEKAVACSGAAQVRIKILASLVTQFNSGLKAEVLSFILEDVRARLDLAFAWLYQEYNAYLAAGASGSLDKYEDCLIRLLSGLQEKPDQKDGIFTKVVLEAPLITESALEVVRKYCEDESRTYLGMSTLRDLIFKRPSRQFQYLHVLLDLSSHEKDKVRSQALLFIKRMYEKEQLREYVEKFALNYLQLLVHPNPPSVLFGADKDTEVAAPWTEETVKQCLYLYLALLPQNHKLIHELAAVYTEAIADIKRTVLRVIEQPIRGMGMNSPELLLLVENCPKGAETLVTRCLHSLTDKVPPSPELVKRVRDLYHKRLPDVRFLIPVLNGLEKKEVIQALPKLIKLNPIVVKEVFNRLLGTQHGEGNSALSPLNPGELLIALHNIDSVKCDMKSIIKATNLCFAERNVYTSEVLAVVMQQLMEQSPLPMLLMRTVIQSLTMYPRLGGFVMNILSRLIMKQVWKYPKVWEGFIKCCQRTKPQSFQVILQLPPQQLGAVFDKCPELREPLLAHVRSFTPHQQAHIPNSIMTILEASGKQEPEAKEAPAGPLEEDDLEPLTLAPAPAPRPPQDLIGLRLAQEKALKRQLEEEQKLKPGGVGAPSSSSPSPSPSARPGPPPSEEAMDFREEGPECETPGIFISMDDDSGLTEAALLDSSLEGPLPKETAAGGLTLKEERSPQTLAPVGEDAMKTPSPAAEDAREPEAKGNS", "assay": "Kd (EC50 corrected by depletion factor)", "outline": "as §1"}, "[3]": {"molecular_target": "T2, DAZAP1 (UniProt Q96EP5)", "T2 sequence": "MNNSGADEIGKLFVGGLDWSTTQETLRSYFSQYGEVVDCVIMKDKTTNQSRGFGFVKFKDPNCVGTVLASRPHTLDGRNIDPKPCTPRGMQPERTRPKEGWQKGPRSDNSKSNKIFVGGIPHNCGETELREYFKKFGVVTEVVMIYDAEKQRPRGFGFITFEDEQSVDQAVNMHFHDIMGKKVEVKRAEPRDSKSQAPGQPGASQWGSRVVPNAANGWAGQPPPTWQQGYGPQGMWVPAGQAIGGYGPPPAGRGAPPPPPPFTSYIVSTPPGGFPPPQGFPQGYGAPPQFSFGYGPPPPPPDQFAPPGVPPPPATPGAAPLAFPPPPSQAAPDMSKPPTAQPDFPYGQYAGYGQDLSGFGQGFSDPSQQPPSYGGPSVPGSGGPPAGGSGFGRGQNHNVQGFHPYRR", "assay": "Kd (EC50 corrected by depletion factor)", "outline": "as §1"}, "[4]": {"molecular_target": "T3, LSM1 (UniProt O15116)", "T3 sequence": "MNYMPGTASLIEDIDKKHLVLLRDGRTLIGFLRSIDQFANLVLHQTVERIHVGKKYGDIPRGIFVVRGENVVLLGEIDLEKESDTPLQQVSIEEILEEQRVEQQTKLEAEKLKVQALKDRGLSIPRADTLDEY", "assay": "Kd (EC50 corrected by depletion factor)", "outline": "as §1"}, "[5]": {"molecular_target": "LSM3 (UniProt P62310)", "sequence (P62310 whole entry)": "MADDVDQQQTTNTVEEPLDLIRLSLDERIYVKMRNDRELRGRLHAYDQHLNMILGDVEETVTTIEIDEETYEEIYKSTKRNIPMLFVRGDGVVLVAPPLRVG", "assay": "Kd (EC50 corrected by depletion factor)", "outline": "as §1"}, "[6]": {"molecular_target": "T4, LIN28B (UniProt Q6ZN17)", "T4 sequence": "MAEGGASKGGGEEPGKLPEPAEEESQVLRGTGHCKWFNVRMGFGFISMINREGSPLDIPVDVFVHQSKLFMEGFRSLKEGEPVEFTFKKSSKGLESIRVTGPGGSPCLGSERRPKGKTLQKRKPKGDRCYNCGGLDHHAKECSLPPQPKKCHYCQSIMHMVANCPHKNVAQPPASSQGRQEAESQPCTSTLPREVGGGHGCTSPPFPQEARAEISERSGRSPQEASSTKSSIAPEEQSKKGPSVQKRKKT", "assay": "EC50 of free RNA motif oligo competing protein binding to immobilised probe", "outline": "as §1"}},
  "data": [
    {"sequence": "AAUAAA", "values": [
      {"measurement": "Kd", "setting": "[1]", "result": 197, "unit": "nM"},
      {"measurement": "Kd", "setting": "[2]", "result": 12.7, "unit": "nM"},
      {"measurement": "Kd", "setting": "[3]", "result": 113, "unit": "nM"},
      {"measurement": "Kd", "setting": "[4]", "result": 23.2, "unit": "nM"},
      {"measurement": "Kd", "setting": "[5]", "result": 45, "unit": "nM"},
      {"measurement": "EC50", "setting": "[6]", "result": 2920, "unit": "nM"}
    ]},
    {"sequence": "CUGUCCU", "values": [
      {"measurement": "EC50", "setting": "[6]", "result": 2300, "unit": "nM"}
    ]},
    {"sequence": "UAUUUAU", "values": [
      {"measurement": "Kd", "setting": "[1]", "result": 106, "unit": "nM"},
      {"measurement": "Kd", "setting": "[2]", "result": 254, "unit": "nM"},
      {"measurement": "Kd", "setting": "[3]", "result": 286, "unit": "nM"},
      {"measurement": "Kd", "setting": "[4]", "result": 167, "unit": "nM"},
      {"measurement": "Kd", "setting": "[5]", "result": 307, "unit": "nM"},
      {"measurement": "EC50", "setting": "[6]", "result": 1470, "unit": "nM"}
    ]}
  ]
}
